± gives the standard deviation of the averaged measurements.
System: ATP
Test: switch fluorescence ratio, 500 uM ATP over buffer (Cy3 cluster intensity, sum of 5 cycles each) (fold (ratio)); higher = stronger signal-on switching upon ATP binding; sequences stand for … in TCGTCGGCAGCGTCAGATGTGTATAAGAGACAGTTTTTTTTTTTTTTTTTTTTTTTTT…TC
Details: aptamer strand: ATP DNA aptamer (quencher-CACCTGGGGGAGTATTGCGGAGGAAGG + anchor), 100 nM annealed; ATP concentration: 500 uM
Summary of the method: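 Clusters with intensities outside 100-1000 RFU were excluded. The remaining Cy3-labelled switching-strand clusters on a modified Illumina MiSeq flow-cell had been annealed to 100 nM quencher-labelled ATP aptamer and imaged in selection buffer, then after 15 min with 500 uM ATP at 22 °C, for five cycles separated by NaOH stripping and re-annealing. The fluorescence ratio, averaged per switch-domain sequence, is each cluster's summed target-cycle Cy3 intensity over its summed buffer-cycle Cy3 intensity.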
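Also: ATP exposure 15 min at 22 °C before imaging.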

| Sequence | switch fluorescence ratio |
| --- | --- |
| CTCAGAATAG | 1.37 ± 0.075 |
| ACGGCATTGC | 1.19 ± 0.037 |
| GGGTGGGGCG | 1.04 ± 0.043 |
| AAGTGGGACC | 1.02 ± 0.025 |
| AAAACGAAAT | 1.02 ± 0.032 |
| TGTGGGAATT | 1.01 ± 0.049 |
| CGCGGGGCGC | 1.03 ± 0.028 |
| AATTCGCGGG | 0.981 ± 0.0069 |
| GAGGCATGGA | 0.9864 ± 0.0039 |
| ATTTGGAGGG | 0.969 ± 0.0034 |
| TGGTAATCAA | 1.01 ± 0.039 |
| GCTGTCTGGT | 1.0181 ± 0.00043 |
| CATCTCTAGC | 0.993 ± 0.012 |
| GGGGGGGCAA | 1.24 ± 0.48 |
| CGTGGGGGTG | 0.993 ± 0.029 |
| TCCGTCACTA | 1.438 ± 0.0074 |
| TGAGGTTGTC | 0.981 ± 0.09 |
| TTAAATTTT | 1.01 ± 0.024 |
| GCCGAAAATA | 0.988 ± 0.012 |
| TTTCAGTGCT | 0.9947 ± 0.005 |
| GGGTGTGCTT | 1.04 ± 0.029 |

| Sequence | switch fluorescence ratio |
| --- | --- |
| ATAAGGTCGT | 1.02 ± 0.039 |
| GGACTTAGAT | 1.02 ± 0.039 |
| TGAGCCTTAG | 1.09 ± 0.05 |
| GGGCAGGTAG | 1.03 ± 0.031 |
| GGGAGTAGGT | 1.008 ± 0.0094 |
| TGCTGGAGGA | 1.038 ± 0.006 |
| AAGCTGGGGG | 0.969 ± 0.033 |
| TATGAATTGG | 1 ± 0.018 |
| GATGCGGGTG | 1.07 ± 0.016 |
| AGTGTTCTCG | 0.983 ± 0.017 |
| GGGGCTAAGA | 0.993 ± 0.015 |
| TGCTGGATTT | 0.991 ± 0.016 |
| TTATAGATGG | 0.971 ± 0.077 |
| GGTACGAAAC | 1.68 ± 0.75 |
| TAATGTGGTT | 0.989 ± 0.033 |
| TTATAGGGCC | 1 ± 0.025 |
| AAAGTGTGCC | 0.962 ± 0.013 |
| TGGTATATT | 0.986 ± 0.027 |
| ACGGAACAGC | 1.11 ± 0.13 |
| TTTGTGGTCT | 0.991 ± 0.032 |
| AGCCGGGGGA | 1.05 ± 0.071 |
